Assay results published in the supplement of paper PMC10567573.

B1: PTPRD (parent)
chain: PVVSMDLDPQPITDEEEGLIWVVG
B2: C9orf9 (parent)
chain: TKHKCRQLTKASLKPRGCSKPPWR

Variants of: B1
Assay: protein stability index of a GFP-peptide fusion (GPS, HEK-293T) (PSI 1-6); higher = more stable
Conditions: c terminus: a fixed tail appended
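Further: lentivirally expressed fusions sorted by FACS into six bins by GFP to DsRed ratio, PSI derived from sequencing read proportions per bin multiplied by bin number.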

Protein stability index, by site and new letter:
V22: H 4.85; S 4.7; Y 5.12; F 2.54; W 3.79; L 3.94; E 5.47; D 5.28; N 4.37; T 4.26; Q 4.63; G 4.92; R 3.89; K 4.57; C 3.9
I20: V 4.87; S 4.64; Q 4.95
G24: N 4.15; S 3.36; E 3.77; T 3.21; I 1.54; W 1.41; D 4.45; V 1.7; M 2.87; Q 3.55; F 1.34; L 1.51; C 1.85; Y 3.09; H 3.87; K 4.06
V23: A 4.67; H 4.93; R 5.03; T 4.93; N 4.45; M 4.55; P 4.97; Y 4.4; D 5.36; G 5.27; L 3.06; S 5.01; C 3.9
W21: H 5.47; I 3.62; S 5.43; F 4.08; Q 5.18; A 6; C 4.69; Y 4.1; V 4.27; T 4.69; L 3.33; D 5.06

Variants of: B2
Assay: as above
Conditions: c terminus: a fixed tail appended

Protein stability index of substitutions, site by site:
K4: I 1.99; Q 2.88; L 1.72; G 2.83; T 2.67; M 2.15; Y 1.95; C 1.91; R 2.45; N 2.78; H 2.66; S 2.9; A 2.94; P 2.21; V 2.25; F 1.82
K10: T 3.42; M 2.38; D 1.94; I 2.73; Q 2.77; W 2.46; R 3.59; H 2.11; L 2.21; Y 2.53; F 2.58; N 2.8; P 2.71; E 1.74; S 3.07
K14: N 3.41; W 2.56; E 3; I 2.2; M 1.73; A 2.24; D 2.2; V 2.79; R 2.52; T 3.17; Q 2.68; Y 1.54; L 2.75; C 2.63; F 2.78; P 2.98; S 2.86
S12: L 2.19; F 2.28; Q 3.25; P 3.28; G 3.76; T 2.6; R 3.37; I 2.87; N 3.19; Y 2.06; W 2.09; A 2.98; M 1.54; K 3.81; C 2.41; E 2.57; D 2.82; H 2.35
R6: H 3.25; G 3.22; T 2.4; N 2.78; C 2.6; L 2.56; M 2.19; Q 3.1; P 1.91; S 2.59; Y 3.72; I 1.86; W 2.46; E 3.17; K 2.76; V 2.84; D 3.03
C5: R 3.76; Y 2.88; D 3.56; T 2.24; F 2.4; G 2.21; A 3.24; Q 3.33; M 1.84; V 2.88; L 2.2; S 2.87; E 3.12; K 3.65; N 2.15; H 2.44; W 2.17
R16: H 2.6; P 3.31; A 2.72; Y 2.28; G 2.42; L 2.56; N 3.08; S 2.89; K 2; C 2.75; M 2.45; V 3.76; E 2.33; I 2.56; T 2.67; W 1.69; D 3.28
A11: D 2.81; F 1.67; W 2.27; N 2.95; C 2.23; L 2.59; E 2.27; G 3.46; T 2.92; P 3.89; Q 2.16; I 2.29; S 2.78; V 2.57; K 2.85; M 1.94; H 3.04; Y 2.48
T9: W 2.25; M 2.48; F 4.48; P 3.18; A 2.2; H 2.47; S 2.27; N 3.87; V 2.92; Q 3.14; Y 3.38; K 3.57; G 2.56; L 2.17; I 2.22
T1: N 3.18; Y 2.09; W 1.77; D 3.22; E 2.52; S 2.96; C 2.45; M 2.64; R 3.56; L 2.44; Q 2.46; K 2.62; I 2.59; F 3.6; G 3.17; P 3.06; A 3.08
L13: R 3.55; S 3.5; H 2.88; T 3.32; V 2.33; A 3.23; I 3.22; Q 3.57; P 3.42; W 3.03; N 2.92; D 3.64; C 3.26; F 2.63; Y 2.43; G 4.47; E 2.91; M 2.8
L8: R 3.54; K 3.02; T 3.22; P 4.04; D 3.07; A 3.21; F 3.24; E 3.62; G 2.58; N 3.04; H 2.98; W 2.43; S 3.12; Y 2.35; C 2.89; M 2.62; I 2.37
G17: F 2.23; T 2.78; L 2.14; Q 3.6; N 2.43; P 2.08; I 2.86; H 2.76; K 3.32; M 2.09; R 3.03; A 2.83; S 2.82; E 3.49; C 1.83; D 2.79
K2: D 3.81; P 4.64; W 2.57; S 4.18; C 2.68; N 2.78; G 3.88; Y 2.1; A 1.36; T 2.27; I 1.64; M 2.16
Q7: K 3.27; P 3.14; R 2.56; F 1.63; G 2.75; V 1.97; C 2.17; L 1.29; N 3.14; Y 2.72; S 3.27; E 2.73; I 2.08; A 2.96; M 2.14; T 2.06; D 4.68; H 2.5
P15: L 2.01; Y 1.68; D 3.17; E 2.59; R 3.93; N 2.86; K 3.52; H 4.16; I 2.66; S 3; T 2.67; W 2.22; F 2.77; G 3.41; M 2.32; C 2.5
H3: D 3.12; P 3.03; E 2.77; F 2.27; T 2.83; C 1.44; S 3.02; Y 3.08; K 3.09; R 3.11; W 2.42
